Test results from publication PMC4522599.
Blank lines part the entries; values can stand above or below the binder they belong to.

What was measured:
[1] = biological target: In trans activated C25A-cathepsin S (human); assay: surface acoustic wave biosensor (sam5BLUE); C25A-cathepsin S coupled by EDC/NHS to a short-chain COOH sensor chip; untreated Bet v 1 injected at increasing concentrations (5 or 10 to 100 μM); 20 mM imidazole pH 6.7, 50 mM NaCl; apparent KD from kobs by linear regression
[2] = biological target: In trans activated C25A-cathepsin S (human); assay: surface acoustic wave biosensor (sam5BLUE); C25A-cathepsin S immobilized; heat-destabilized Bet v 1 (10 min at 60 °C, spin-filtered) injected, 1a at 10 to 100 μM, 1d at 2.5 to 40 μM; pH 6.7

Kd [1]: 21.5 µM
B1: Bet v 1a (Bet v 1.0101), major birch pollen allergen (natural protein)
chain: GVFNYETETTSVIPAARLFKAFILDGDNLFPKVAPQAISSVENIEGNGGPGTIKKISFPEGFPFKYVKDRVDEVDHTNFKYNYSVIEGGPIGDTLEKISNEIKIVATPDGGSILKISNKYHTKGDHEVKAEQVKASKEMGETLLRAVESYLLAHSDAYN

fold reduction in affinity against untreated Bet v 1d [2]: 5 fold
Kd [1]: 5.4 µM
B2: Bet v 1d (Bet v 1.0401), hypoallergenic isoform of the major birch pollen allergen (natural protein)
chain: MGVFNYEIETTSVIPAARLFKAFILDGDNLVPKVAPQAISSVENIEGNGGPGTIKKINFPEGFPFKYVKDRVDEVDHTNFKYNYSVIEGGPVGDTLEKISNEIKIVATPDGGCVLKISNKYHTKGNHEVKAEQVKASKEMGETLLRAVESYLLAHSDAYN
